Test results from IntAct's records for PubMed 22124327.

Target: otub1_human OTUB1 (UniProt Q96FW1)
Sequence (Q96FW1 whole entry): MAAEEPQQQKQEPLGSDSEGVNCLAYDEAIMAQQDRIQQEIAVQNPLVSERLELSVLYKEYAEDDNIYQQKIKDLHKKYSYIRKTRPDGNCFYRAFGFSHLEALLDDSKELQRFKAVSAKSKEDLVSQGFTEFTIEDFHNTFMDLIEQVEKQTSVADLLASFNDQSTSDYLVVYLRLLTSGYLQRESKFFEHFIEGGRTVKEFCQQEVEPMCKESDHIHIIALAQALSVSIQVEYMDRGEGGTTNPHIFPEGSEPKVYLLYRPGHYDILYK

Ubiquitin-conjugating enzyme E2 D1 (Homo sapiens), P51668 D87A, sequence (P51668 whole entry D87A): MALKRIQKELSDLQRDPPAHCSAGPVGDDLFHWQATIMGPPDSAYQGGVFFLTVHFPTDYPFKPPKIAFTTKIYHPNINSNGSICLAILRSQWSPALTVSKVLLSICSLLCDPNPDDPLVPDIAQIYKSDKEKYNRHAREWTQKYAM

“Ubiquitin-conjugating enzyme E2 D1 (Homo sapiens), P51668 D87A” was tested, and the “effect of a mutation on the interaction” value was “disrupting interaction”.
